Results as given in article PMC10593786 (Nature Communications, 2023).

B1: Myo6 ^YFPCBD (WT) (domain or fragment, mouse, UniProt Q64331 1032-1262, looked up)
chain: MALRRGPAVQATKAAAGTKKHDLSKWKYAELRDTINTSCDIELLAACREEFHRRLKVYHAWKSKNKKRNTETEQRAPKSVTDYDFAPFLNNSPQQNPAAQLPARQQEIDMKRQQRFFRIPFIRPADQYKDPQNKKKGWWYAHFDGPWIARQMELHPDKPPILLVAGKDDMEMCELNLEETGLTRKRGAEILPRQFEEIWERCGGIQYLQSAIESRQARPTYATAMLQNLLK
notes: The results call it CBD^1035-end, the methods give M1032; also called Myo6 CBD; CBD^1035-end; source: E. coli BL21 (DE3), purified (HisTrap IMAC, SEC); not shown: YFP, N-terminal, kept
B2: Myo6 875-940 (N-terminal 6xHis-tag, pET14) (domain or fragment, mouse, UniProt Q64331 875-940, looked up)
chain: EISIDALMAKIKSTMMTREQIQKEYDALVKSSEDLLSALQKKKQQEEEAERLRRIQEEMEKERKRR
notes: mouse myosin VI aa 875-940: 2nd and 3rd helix of the 3HB and first part of the SAH; also called aa 875-940; 875-940 peptide; source: E. coli BL21 (DE3), purified (IMAC, SEC)
B3: Myo6 875-940 (his-rTEV-875-940, pProEX-HTb) (domain or fragment, mouse, UniProt Q64331 875-940, looked up)
chain: B2 chain
notes: mouse myosin VI aa 875-940; Made for crystallization; also called Myo6 875-940 WT; 875-940 peptide; source: E. coli BL21 (DE3), purified (IMAC, rTEV, SEC); not shown: His6, N-terminal, cleaved
B4: ^HisGIPC1 (His-rTEV-GIPC1 255-end) (domain or fragment, mouse, UniProt Q9Z0G0 255-333, looked up)
chain: DLPSAFEEKAIEKVDDLLESYMGIRDTELAATMVELGKDKRNPDELAEALDERLGDFAFPDEFVFDVWGAIGDAKVGRY
notes: mouse GIPC1 truncated in the N-terminus at aa D255 to keep only the GH2 domain; The ATPase assays used His-mNeonGreen-GIPC1 238-end, the MNT-1 assays ^mCherryMST-GIPC1 (239-end); also called GH2 domain; source: E. coli BL21 (DE3), purified (IMAC, SEC); not shown: His6, N-terminal, kept
B5: ^HisTOM1 (His-TOM1 207-492) (domain or fragment)
chain: DTPIAPTPEQIGKLRSELEMVSGNVRVMSEMLTELVPTQAEPADLELLQELNRTCRAMQQRVLELIPQIANEQLTEELLIVNDNLNNVFLRHERFERFRTGQTTKAPSEAEPAADLIDMGPDPAATGNLSSQLAGMNLGSSSVRAGLQSLEASGRLEDEFDMFALTRGSSLADQRKEVKYEAPQATDGLAGALDARQQSTGAIPVTQACLMEDIEQWLSTDVGNDAEEPKGVTSEEFDKFLEERAKAADRLPNLSSPSAEGPPGPPSGPAPRKKTQEKDDDMLFAL
notes: human TOM1 residues 207-end (207-492); The ATPase assays used His-YFP-TOM1 436-461, the MNT-1 assays ^mCherryMST-TOM1 (299-end); also called TOM1 207-end; source: E. coli BL21 (DE3), purified (IMAC, SEC); not shown: His6, N-terminal, kept
B6: Myo6 Ins2/IQ/3HB (aa 783-917) (domain or fragment, human, UniProt Q9UM54-5 783-917, looked up)
chain: RVNHWLTCSRWKKVQWCSLSVIKLKNKIKYRAEACIKMQKTIRMWLCKRRHKPRIDGLVKVGTLKKRLDKFNEVVSVLKDGKPEMNKQIKNLEISIDTLMAKIKSTMMTQEQIQKEYDALVKSSEELLSALQKKK
notes: human myosin VI, aa 783-917 (insert-2, IQ, 3-helix bundle), from the human FLMyo6 no-insert construct; source: E. coli BL21 (DE3), purified (IMAC, SEC); not shown: His6, N-terminal, cleaved

Tests used:
[1] = biological target: B5; assay: MST; ^YFPCBD kept at 100 nM, Myo6 partner titrated (16 two-fold dilutions), 25 °C, 20 mM Bis-Tris pH 6.5, 100 mM KCl, 1 mM DTT, 0.05% Tween-20; settings: both partners purified
[2] = biological target: T1, Myo6 MD^Ins2/IQ/3HB (1-917) ( | human, UniProt Q29122 1-917; P0DP23 1-149); assay: MST; ^YFPCBD kept at 100 nM, Head sample titrated (16 two-fold dilutions), 25 °C, 20 mM Hepes pH 7.5, 50 mM NaCl, 2.5 mM MgCl2, 1 mM TCEP, 0.05% Tween-20, nucleotide-free (motor state NF); settings: both partners purified
T1 construct: also called Myo6-917; Myo6 Head fragment

[3] = biological target: T1, Myo6 MD^Ins2/IQ/3HB (1-917); assay: MST; ^YFPCBD kept at 100 nM, Head sample titrated (16 two-fold dilutions), 25 °C, 20 mM Hepes pH 7.5, 50 mM NaCl, 2.5 mM MgCl2, 1 mM TCEP, 0.05% Tween-20, with 2 mM MgADP and 2 mM Na3VO4 (motor state ADP.VO4); settings: both partners purified
[4] = biological target: T2, Myo6 MD^Ins2 (2-816) ( | human, UniProt Q29122 2-816; P0DP23 1-149); assay: as above; settings: both partners purified
T2 construct: also called Tail-less construct

[5] = biological target: T3, Myo6 MD (1-789) (UniProt Q29122 1-789); assay: as above; settings: both partners purified
T3 construct: myosin VI (Myo6) residues 1-789: Motor domain; also called Motor domain; source: Sf9/baculovirus, co-infected with human CaM virus, purified (anti-Flag resin)
T3 sequence (Q29122 1-789): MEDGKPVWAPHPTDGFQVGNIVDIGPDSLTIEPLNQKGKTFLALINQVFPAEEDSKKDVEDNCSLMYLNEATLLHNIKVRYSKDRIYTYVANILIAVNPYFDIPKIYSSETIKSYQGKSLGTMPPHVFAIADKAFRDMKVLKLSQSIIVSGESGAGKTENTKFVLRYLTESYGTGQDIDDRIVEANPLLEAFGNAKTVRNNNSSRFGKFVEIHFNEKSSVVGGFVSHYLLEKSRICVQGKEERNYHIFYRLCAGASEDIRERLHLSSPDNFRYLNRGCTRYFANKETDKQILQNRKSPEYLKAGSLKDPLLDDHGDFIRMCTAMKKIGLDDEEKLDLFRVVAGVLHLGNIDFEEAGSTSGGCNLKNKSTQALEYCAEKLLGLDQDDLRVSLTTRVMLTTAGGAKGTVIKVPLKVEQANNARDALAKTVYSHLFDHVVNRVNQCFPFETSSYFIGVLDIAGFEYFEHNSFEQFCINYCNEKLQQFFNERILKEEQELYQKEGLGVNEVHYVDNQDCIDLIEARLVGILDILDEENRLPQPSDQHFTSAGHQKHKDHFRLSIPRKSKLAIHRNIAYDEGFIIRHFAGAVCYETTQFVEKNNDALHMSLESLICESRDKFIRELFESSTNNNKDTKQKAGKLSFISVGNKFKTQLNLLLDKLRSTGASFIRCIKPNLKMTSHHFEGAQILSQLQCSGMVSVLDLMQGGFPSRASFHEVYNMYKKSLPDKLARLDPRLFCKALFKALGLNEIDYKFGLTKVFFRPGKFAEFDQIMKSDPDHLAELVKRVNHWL

[6] = biological target: the molecule itself; assay: SEC-MALS; fragments of the 3HB/SAH junction on Superdex 200 10/300 Increase, 0.5 mL/min; titration; apparent KD, dimer to monomers
[7] = biological target: the molecule itself; assay: SEC-MALS; injection of 50 µL at 10 mg/mL in 10 mM Tris-HCl pH 7.5, 50 mM NaCl, 5 mM NaN3, 0.5 mM TCEP; peak concentration by the in-line refractometer
[8] = biological target: B1; assay: MST; ^YFPCBD kept at 100 nM, Myo6 partner titrated (16 two-fold dilutions), 25 °C, 20 mM Bis-Tris pH 6.5, 100 mM KCl, 1 mM DTT, 0.05% Tween-20; settings: both partners purified
[9] = biological target: T4, full-length wild-type Myo6, small insert isoform (FLMyo6 SI (WT)) (human, UniProt Q9UM54-2 1-1262; P0DP23 1-149); assay: pull-down; settings: both partners purified
T4 construct: also called FLMyo6 (WT)

[10] = biological target: T5, FLMyo6 SI (SAHmimic) (human, UniProt Q9UM54-2 1-1262; P0DP23 1-149, Glu922 to Glu935 (EAERLRRIQEEMEK) replaced with EERKRREEEERKKREEE); assay: pull-down; anti-His pull-down on Ni2+ beads, His-partner and FLMyo6 SI (SAHmimic) 1/1 (10 µM), 1 µM extra calmodulin, 4 °C; which of the three buffers is not given; settings: both partners purified
T5 construct: also called FLMyo6 (SAHmimic)

[11] = biological target: B1; assay: MST; ^YFPCBD kept at 100 nM, Ins2/IQ/3HB titrated (16 two-fold dilutions), 25 °C, 20 mM Hepes pH 7.5, 50 mM NaCl, 2.5 mM MgCl2, 1 mM TCEP, 0.05% Tween-20; motor state '-' (no Motor domain); settings: both partners purified

## B1
[1]
  binding result: binds
[2]
  Kd: 0.726 µM
[3]
  Kd: 0.144 µM
[4]
  Kd: 0.343 µM
[5]
  Kd: 3.92 µM

## B2
[6]
  Kd: ~19 µM

## B3
[7]
  stoichiometry N: 2

## B4
[8]
  binding result: binds

## B5
[9]
  binding result: binds
[10]
  binding result: binds

## B6
[11]
  Kd: 0.25 µM
